Laboratory results reported in patent US20240287172A1 (SCIRHOM, published 2024).
Positions count from the first letter of the chain named.

T1: hiR2-FL-D569E-T7 (human, UniProt Q6PJF5 1-856)
T1 sequence: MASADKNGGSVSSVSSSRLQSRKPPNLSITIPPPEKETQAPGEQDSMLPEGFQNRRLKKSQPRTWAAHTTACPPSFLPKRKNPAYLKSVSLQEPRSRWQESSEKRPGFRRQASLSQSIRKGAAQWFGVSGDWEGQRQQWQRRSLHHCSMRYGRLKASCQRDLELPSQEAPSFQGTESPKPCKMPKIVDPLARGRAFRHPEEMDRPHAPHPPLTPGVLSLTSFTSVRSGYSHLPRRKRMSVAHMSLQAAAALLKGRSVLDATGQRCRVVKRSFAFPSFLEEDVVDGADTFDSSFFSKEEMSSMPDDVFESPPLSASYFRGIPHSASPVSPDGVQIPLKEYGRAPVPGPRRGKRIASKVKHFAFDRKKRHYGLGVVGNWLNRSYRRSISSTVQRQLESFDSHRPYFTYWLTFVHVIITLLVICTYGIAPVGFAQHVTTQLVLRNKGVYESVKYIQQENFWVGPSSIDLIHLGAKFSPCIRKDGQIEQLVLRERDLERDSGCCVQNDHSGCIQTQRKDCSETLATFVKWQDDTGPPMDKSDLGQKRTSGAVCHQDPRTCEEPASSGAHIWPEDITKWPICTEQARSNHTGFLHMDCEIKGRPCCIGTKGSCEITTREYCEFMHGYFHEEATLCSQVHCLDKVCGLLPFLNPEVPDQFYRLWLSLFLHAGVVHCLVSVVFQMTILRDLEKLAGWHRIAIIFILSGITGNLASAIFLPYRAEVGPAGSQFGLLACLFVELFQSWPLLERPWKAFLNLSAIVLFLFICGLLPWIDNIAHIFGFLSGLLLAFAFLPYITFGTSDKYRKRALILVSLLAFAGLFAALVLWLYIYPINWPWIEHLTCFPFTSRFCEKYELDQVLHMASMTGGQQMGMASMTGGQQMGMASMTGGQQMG

B1: antibody 48 (antibody, V domains shown)
VH: QVQLQQSGTELVRPGTSVKVSCKASGYAFTNYLIEWVKQRPGQGLEWIGVINPGSGFTKYNEKFKGKATLTADKSSSTVYMHLSSLTSEDSAVYFCARGLYRAMDYWGQGTSVTVSS
VL: DIQMTQSPASQSASLGESVTITCLASQTIATWLAWYQQKPGKSPQLLIYGATTLADGVPSRFSGGGSGTKFSFKISSLQAEDFVSYYCQQLYSTPYTFGGGTKLEIK
notes: mouse IgG, kappa light chain; also called clone #48; purified antibody 48
B2: antibody 50 (antibody, V domains shown)
VH: B1 VH with T9A, T16A, T30S, V79A, H82Q
VL: B1 VL with A30G, G50A, T52A, T53S, S85N, L91I
notes: mouse IgG, kappa light chain; also called clone #50; purified antibody 50

Target: T1, hiR2-FL-D569E-T7
Assay: FACS, MEF-DKO cells, 3 µg/ml
In short: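 Binding read by flow cytometry after a PE goat anti-mouse IgG F(ab′)2 secondary (1:100, on ice, 1 h, dark). Before that, immortalized MEF-DKO lines carrying single-mutant hiR2-FL-T7 constructs were incubated 1 h on ice with 3 μg/ml antibody or FACS buffer alone.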

Binder | loss of binding vs wild type [%]
B1 | ≥ 30
B2 | ≥ 30
